Experimental data taken from patent US20260201008A1, “SECRETIN-DERIVED GLP1R SELECTIVE AGONISTS” (GUBRA A/S, priority 2023, published 2026).
Values belong to the binder of their own block, whether it stands above or below them. Square brackets hold non-standard residues; d marks the D form. Ends that are not written are not given here. Aib = CC(C)(N)C(=O)O

Legend:
[1] = molecular target: human GLP-1 receptor (hGLP1R) (human, UniProt P43220 24-463); test: cell-based or functional assay
[2] = molecular target: human secretin receptor (hSCTR) (human, UniProt P47872 23-440); test: cell-based or functional assay
human secretin receptor (hSCTR), sequence (P47872 23-440): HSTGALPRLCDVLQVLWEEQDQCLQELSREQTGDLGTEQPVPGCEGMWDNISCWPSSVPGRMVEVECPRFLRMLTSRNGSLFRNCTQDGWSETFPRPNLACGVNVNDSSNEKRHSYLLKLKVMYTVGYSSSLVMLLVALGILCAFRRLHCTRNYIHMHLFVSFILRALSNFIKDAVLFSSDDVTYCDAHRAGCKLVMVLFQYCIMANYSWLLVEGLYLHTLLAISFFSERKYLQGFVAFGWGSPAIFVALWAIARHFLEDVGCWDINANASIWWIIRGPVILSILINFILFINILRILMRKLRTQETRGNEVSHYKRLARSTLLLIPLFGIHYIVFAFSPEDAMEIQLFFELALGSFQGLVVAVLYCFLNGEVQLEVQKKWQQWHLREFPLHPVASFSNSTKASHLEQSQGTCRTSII

- pEC50 hGLPR1 [1]: 10.5 -log M
- pEC50 hSCTR [2]: 6.5 -log M
B1: SEQ ID NO: 13 (peptide)
peptide: H[Aib]EGTFTSDVSFLKE[Aib]AATQRFLEHLV-NH2
modifications: not fully specified (residue 14)

- pEC50 hGLPR1 [1]: 8.4 -log M
- pEC50 hSCTR [2]: 5 -log M
B2: SEQ ID NO: 125 (peptide)
peptide: H[Aib]EGTFTSDPS[Aib]LLEGAALQRFIQWLV-NH2
modifications: N-terminus assumed
SMILES: CC[C@H](C)[C@H](NC(=O)[C@H](Cc1ccccc1)NC(=O)[C@H](CCCNC(=N)N)NC(=O)[C@H](CCC(N)=O)NC(=O)[C@H](CC(C)C)NC(=O)[C@H](C)NC(=O)[C@H](C)NC(=O)CNC(=O)[C@H](CCC(=O)O)NC(=O)[C@H](CC(C)C)NC(=O)[C@H](CC(C)C)NC(=O)C(C)(C)NC(=O)[C@H](CO)NC(=O)[C@@H]1CCCN1C(=O)[C@H](CC(=O)O)NC(=O)[C@H](CO)NC(=O)[C@@H](NC(=O)[C@H](Cc1ccccc1)NC(=O)[C@@H](NC(=O)CNC(=O)[C@H](CCC(=O)O)NC(=O)C(C)(C)NC(=O)[C@@H](N)Cc1c[nH]cn1)[C@@H](C)O)[C@@H](C)O)C(=O)N[C@@H](CCC(N)=O)C(=O)N[C@@H](Cc1c[nH]c2ccccc12)C(=O)N[C@@H](CC(C)C)C(=O)N[C@H](C(N)=O)C(C)C

- pEC50 hGLPR1 [1]: 10.5 -log M
- pEC50 hSCTR [2]: 6 -log M
B3: SEQ ID NO: 130 (peptide)
peptide: H[Aib]EGTFTSDVSYLWEEA[Aib]LQRFLEKLV-NH2
modifications: not fully specified (residue 25)

- pEC50 hGLPR1 [1]: 8.1 -log M
- pEC50 hSCTR [2]: 5.7 -log M
B4: SEQ ID NO: 126 (peptide)
peptide: H[Aib]EGTFTSDPSFLLEGAALQRFIQWLV-NH2
modifications: N-terminus assumed
SMILES: CC[C@H](C)[C@H](NC(=O)[C@H](Cc1ccccc1)NC(=O)[C@H](CCCNC(=N)N)NC(=O)[C@H](CCC(N)=O)NC(=O)[C@H](CC(C)C)NC(=O)[C@H](C)NC(=O)[C@H](C)NC(=O)CNC(=O)[C@H](CCC(=O)O)NC(=O)[C@H](CC(C)C)NC(=O)[C@H](CC(C)C)NC(=O)[C@H](Cc1ccccc1)NC(=O)[C@H](CO)NC(=O)[C@@H]1CCCN1C(=O)[C@H](CC(=O)O)NC(=O)[C@H](CO)NC(=O)[C@@H](NC(=O)[C@H](Cc1ccccc1)NC(=O)[C@@H](NC(=O)CNC(=O)[C@H](CCC(=O)O)NC(=O)C(C)(C)NC(=O)[C@@H](N)Cc1c[nH]cn1)[C@@H](C)O)[C@@H](C)O)C(=O)N[C@@H](CCC(N)=O)C(=O)N[C@@H](Cc1c[nH]c2ccccc12)C(=O)N[C@@H](CC(C)C)C(=O)N[C@H](C(N)=O)C(C)C

- pEC50 hGLPR1 [1]: 10.8 -log M
- pEC50 hSCTR [2]: 6.4 -log M
B5: SEQ ID NO: 133 (peptide)
peptide: H[Aib]EGTFTSDVSYLKEEA[Aib]LQRFLEFLV-NH2
modifications: not fully specified (residue 14)

- pEC50 hGLPR1 [1]: 11.3 -log M
- pEC50 hSCTR [2]: 5.3 -log M
B6: SEQ ID NO: 131 (peptide)
peptide: H[Aib]EGTFTSDVSYLKEEA[Aib]NQRFLEHLV-NH2
modifications: not fully specified (residue 14)

- pEC50 hGLPR1 [1]: 11.1 -log M
- pEC50 hSCTR [2]: 5.6 -log M
B7: SEQ ID NO: 134 (peptide)
peptide: H[Aib]EGTFTSDVSYLKEEA[Aib]SQRFLEHLV-NH2
modifications: not fully specified (residue 14)

- pEC50 hGLPR1 [1]: 8 -log M
- pEC50 hSCTR [2]: 5.2 -log M
B8: SEQ ID NO: 123 (peptide)
peptide: H[Aib]EGTFTSDPSGLLEGAALQRFIQWLV-NH2
modifications: N-terminus assumed
SMILES: CC[C@H](C)[C@H](NC(=O)[C@H](Cc1ccccc1)NC(=O)[C@H](CCCNC(=N)N)NC(=O)[C@H](CCC(N)=O)NC(=O)[C@H](CC(C)C)NC(=O)[C@H](C)NC(=O)[C@H](C)NC(=O)CNC(=O)[C@H](CCC(=O)O)NC(=O)[C@H](CC(C)C)NC(=O)[C@H](CC(C)C)NC(=O)CNC(=O)[C@H](CO)NC(=O)[C@@H]1CCCN1C(=O)[C@H](CC(=O)O)NC(=O)[C@H](CO)NC(=O)[C@@H](NC(=O)[C@H](Cc1ccccc1)NC(=O)[C@@H](NC(=O)CNC(=O)[C@H](CCC(=O)O)NC(=O)C(C)(C)NC(=O)[C@@H](N)Cc1c[nH]cn1)[C@@H](C)O)[C@@H](C)O)C(=O)N[C@@H](CCC(N)=O)C(=O)N[C@@H](Cc1c[nH]c2ccccc12)C(=O)N[C@@H](CC(C)C)C(=O)N[C@H](C(N)=O)C(C)C

- pEC50 hGLPR1 [1]: 8.2 -log M
- pEC50 hSCTR [2]: 5.3 -log M
B9: SEQ ID NO: 122 (peptide)
peptide: H[Aib]EGTFTSDPSELLEGAALQRFIQWLV-NH2
modifications: N-terminus assumed
SMILES: CC[C@H](C)[C@H](NC(=O)[C@H](Cc1ccccc1)NC(=O)[C@H](CCCNC(=N)N)NC(=O)[C@H](CCC(N)=O)NC(=O)[C@H](CC(C)C)NC(=O)[C@H](C)NC(=O)[C@H](C)NC(=O)CNC(=O)[C@H](CCC(=O)O)NC(=O)[C@H](CC(C)C)NC(=O)[C@H](CC(C)C)NC(=O)[C@H](CCC(=O)O)NC(=O)[C@H](CO)NC(=O)[C@@H]1CCCN1C(=O)[C@H](CC(=O)O)NC(=O)[C@H](CO)NC(=O)[C@@H](NC(=O)[C@H](Cc1ccccc1)NC(=O)[C@@H](NC(=O)CNC(=O)[C@H](CCC(=O)O)NC(=O)C(C)(C)NC(=O)[C@@H](N)Cc1c[nH]cn1)[C@@H](C)O)[C@@H](C)O)C(=O)N[C@@H](CCC(N)=O)C(=O)N[C@@H](Cc1c[nH]c2ccccc12)C(=O)N[C@@H](CC(C)C)C(=O)N[C@H](C(N)=O)C(C)C

- pEC50 hGLPR1 [1]: 8.1 -log M
- pEC50 hSCTR [2]: 5.4 -log M
B10: SEQ ID NO: 127 (peptide)
peptide: H[Aib]EGTFTSDPSWLLEGAALQRFIQWLV-NH2
modifications: N-terminus assumed
SMILES: CC[C@H](C)[C@H](NC(=O)[C@H](Cc1ccccc1)NC(=O)[C@H](CCCNC(=N)N)NC(=O)[C@H](CCC(N)=O)NC(=O)[C@H](CC(C)C)NC(=O)[C@H](C)NC(=O)[C@H](C)NC(=O)CNC(=O)[C@H](CCC(=O)O)NC(=O)[C@H](CC(C)C)NC(=O)[C@H](CC(C)C)NC(=O)[C@H](Cc1c[nH]c2ccccc12)NC(=O)[C@H](CO)NC(=O)[C@@H]1CCCN1C(=O)[C@H](CC(=O)O)NC(=O)[C@H](CO)NC(=O)[C@@H](NC(=O)[C@H](Cc1ccccc1)NC(=O)[C@@H](NC(=O)CNC(=O)[C@H](CCC(=O)O)NC(=O)C(C)(C)NC(=O)[C@@H](N)Cc1c[nH]cn1)[C@@H](C)O)[C@@H](C)O)C(=O)N[C@@H](CCC(N)=O)C(=O)N[C@@H](Cc1c[nH]c2ccccc12)C(=O)N[C@@H](CC(C)C)C(=O)N[C@H](C(N)=O)C(C)C

- pEC50 hGLPR1 [1]: 10.7 -log M
- pEC50 hSCTR [2]: 6.7 -log M
B11: SEQ ID NO: 132 (peptide)
peptide: H[Aib]EGTFTSDVSYLKEEALLQRFLEHLV-NH2
modifications: not fully specified (residue 14)

- pEC50 hGLPR1 [1]: 8.6 -log M
- pEC50 hSCTR [2]: 5.3 -log M
B12: SEQ ID NO: 124 (peptide)
peptide: H[Aib]EGTFTSDPSRLLEGAALQRFIQWLV-NH2
modifications: N-terminus assumed
SMILES: CC[C@H](C)[C@H](NC(=O)[C@H](Cc1ccccc1)NC(=O)[C@H](CCCNC(=N)N)NC(=O)[C@H](CCC(N)=O)NC(=O)[C@H](CC(C)C)NC(=O)[C@H](C)NC(=O)[C@H](C)NC(=O)CNC(=O)[C@H](CCC(=O)O)NC(=O)[C@H](CC(C)C)NC(=O)[C@H](CC(C)C)NC(=O)[C@H](CCCNC(=N)N)NC(=O)[C@H](CO)NC(=O)[C@@H]1CCCN1C(=O)[C@H](CC(=O)O)NC(=O)[C@H](CO)NC(=O)[C@@H](NC(=O)[C@H](Cc1ccccc1)NC(=O)[C@@H](NC(=O)CNC(=O)[C@H](CCC(=O)O)NC(=O)C(C)(C)NC(=O)[C@@H](N)Cc1c[nH]cn1)[C@@H](C)O)[C@@H](C)O)C(=O)N[C@@H](CCC(N)=O)C(=O)N[C@@H](Cc1c[nH]c2ccccc12)C(=O)N[C@@H](CC(C)C)C(=O)N[C@H](C(N)=O)C(C)C

- pEC50 hGLPR1 [1]: 7.8 -log M
- pEC50 hSCTR [2]: 4.7 -log M
B13: SEQ ID NO: 128 (peptide)
peptide: H[Aib]EGTFTSDPSYLLEGAALQRFIQWLV-NH2
modifications: N-terminus assumed
SMILES: CC[C@H](C)[C@H](NC(=O)[C@H](Cc1ccccc1)NC(=O)[C@H](CCCNC(=N)N)NC(=O)[C@H](CCC(N)=O)NC(=O)[C@H](CC(C)C)NC(=O)[C@H](C)NC(=O)[C@H](C)NC(=O)CNC(=O)[C@H](CCC(=O)O)NC(=O)[C@H](CC(C)C)NC(=O)[C@H](CC(C)C)NC(=O)[C@H](Cc1ccc(O)cc1)NC(=O)[C@H](CO)NC(=O)[C@@H]1CCCN1C(=O)[C@H](CC(=O)O)NC(=O)[C@H](CO)NC(=O)[C@@H](NC(=O)[C@H](Cc1ccccc1)NC(=O)[C@@H](NC(=O)CNC(=O)[C@H](CCC(=O)O)NC(=O)C(C)(C)NC(=O)[C@@H](N)Cc1c[nH]cn1)[C@@H](C)O)[C@@H](C)O)C(=O)N[C@@H](CCC(N)=O)C(=O)N[C@@H](Cc1c[nH]c2ccccc12)C(=O)N[C@@H](CC(C)C)C(=O)N[C@H](C(N)=O)C(C)C

- pEC50 hGLPR1 [1]: 8.1 -log M
- pEC50 hSCTR [2]: 5 -log M
B14: SEQ ID NO: 129 (peptide)
peptide: H[Aib]EGTFTSDPSVLLEGAALQRFIQWLV-NH2
modifications: N-terminus assumed
SMILES: CC[C@H](C)[C@H](NC(=O)[C@H](Cc1ccccc1)NC(=O)[C@H](CCCNC(=N)N)NC(=O)[C@H](CCC(N)=O)NC(=O)[C@H](CC(C)C)NC(=O)[C@H](C)NC(=O)[C@H](C)NC(=O)CNC(=O)[C@H](CCC(=O)O)NC(=O)[C@H](CC(C)C)NC(=O)[C@H](CC(C)C)NC(=O)[C@@H](NC(=O)[C@H](CO)NC(=O)[C@@H]1CCCN1C(=O)[C@H](CC(=O)O)NC(=O)[C@H](CO)NC(=O)[C@@H](NC(=O)[C@H](Cc1ccccc1)NC(=O)[C@@H](NC(=O)CNC(=O)[C@H](CCC(=O)O)NC(=O)C(C)(C)NC(=O)[C@@H](N)Cc1c[nH]cn1)[C@@H](C)O)[C@@H](C)O)C(C)C)C(=O)N[C@@H](CCC(N)=O)C(=O)N[C@@H](Cc1c[nH]c2ccccc12)C(=O)N[C@@H](CC(C)C)C(=O)N[C@H](C(N)=O)C(C)C

- pEC50 hGLPR1 [1]: 11.3 -log M
- pEC50 hSCTR [2]: 6.9 -log M
B15: SEQ ID NO: 135 (peptide)
peptide: H[Aib]EGTFTSDVSYLKEEA[Aib]LQRWLEHLV-NH2
modifications: not fully specified (residue 14)
